Consider one substance from patent US20070020258A1.

Test [1] addresses FcεRI alpha chain on CHO 3D10 cells (UniProt P12319). The experiment in a line: FACS, CHO 3D10 cells, 5 ug/ml.
Test [2] addresses FcεRII (CD23) on IM9 B cells (human) (UniProt P06734). The experiment in a line: FACS, IM9 cells, 10 ug/ml.
For test [3] the target is unchanged. Nature of the test: FACS, IM9 cells, 5 ug/ml.
Test [4] shares this target. The experiment in a line: FACS, IM9 cells, 0.1 ug/ml.
Test [5] has as its target FcεRI alpha chain on CHO 3D10 cells (UniProt P12319). Nature of the test: FACS, CHO 3D10 cells, 10 ug/ml.
The target is the same in test [6]. The experiment in a line: FACS, CHO 3D10 cells, 0.1 ug/ml.
Test [7] has the same target. Nature of the test: FACS, CHO 3D10 cells, 0.5 ug/ml.

Sequence of FcεRI alpha chain on CHO 3D10 cells (P12319 26-257 limits assumed): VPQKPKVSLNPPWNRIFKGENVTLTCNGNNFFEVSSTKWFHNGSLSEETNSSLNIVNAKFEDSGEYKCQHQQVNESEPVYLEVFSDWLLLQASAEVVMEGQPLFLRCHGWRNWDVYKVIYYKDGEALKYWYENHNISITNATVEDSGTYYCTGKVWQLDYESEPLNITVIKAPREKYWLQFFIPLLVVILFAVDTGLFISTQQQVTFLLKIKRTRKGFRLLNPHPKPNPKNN
Sequence of FcεRII (CD23) on IM9 B cells (human) (P06734 whole entry): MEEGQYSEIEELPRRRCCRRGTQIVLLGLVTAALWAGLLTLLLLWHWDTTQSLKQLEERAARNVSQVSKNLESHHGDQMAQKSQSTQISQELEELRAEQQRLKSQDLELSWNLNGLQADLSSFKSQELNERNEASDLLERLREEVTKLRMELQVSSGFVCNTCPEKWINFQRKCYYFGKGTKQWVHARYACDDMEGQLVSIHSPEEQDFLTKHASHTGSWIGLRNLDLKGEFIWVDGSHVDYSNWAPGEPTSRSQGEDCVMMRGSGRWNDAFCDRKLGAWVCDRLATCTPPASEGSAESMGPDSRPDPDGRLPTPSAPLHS

As for “human IgE purified from U266B1 cells (from UniProt P01854 1-428) (antibody)”, the % CHO 3D10(+) in test [1] was 89.9%; in test [5], 90.3%; in test [6] it was 15.8%; in test [7], 59.6%. For the same substance, the figures for the % IM9 (+) in test [2], in test [3] and in test [4] were 92.5%, 82.6% and 1.7%, respectively.
